Source: patent US20170283470A1 (OXFORD NANOPORE TECHNOLOGIES, published 2017)

B1: CsgG (wild-type E. coli CsgG, outer membrane localized, C-terminally StrepII-tagged, membrane-extracted nonameric pore) (other)
chain: CLTAPPKEAARPTLMPRAQSYKDLTHLPAPTGKIFVSVYNIQDETGQFKPYPASNFSTAVPQSATAMLVTALKDSRWFIPLERQGLQNLLNERKIIRAAQENGTVAINNRIPLQSLTAANIMVEGSIIGYESNVKSGGVGARYFGIGADTQYQLDQIAVNLRVVNVSTGEILSSVNTSKTILSYEVQAGVFRFIDYQRLLEGEVGYTSNEPVMLCLMSAIETGVIFLINDGIDRGLWDLQNKAERQNDILVKYRHMSVPPES
modifications: N-terminal Cys of the mature protein triacylated (lipidated), as described in paragraph 145
notes: Produced from pPG1 in E. coli BL21(DE3) and extracted from outer membranes with detergent; It was amphipol A8-35-solubilized for native PAGE and EM, and reconstituted in planar phospholipid bilayers for single-channel recordings; also called CsgG channel; CsgG pore; not shown: C-terminal StrepII tag of construct pPG1

Legend:
[1] = biological target: B1; assay: SYPRO orange fluorescence of CsgE and CsgG bands on SDS-PAGE of the complex band cut from native PAGE
[2] = biological target: the molecule itself; assay: crystal structure, size-exclusion chromatography, EM and single-channel recordings

| Binder | CsgG/CsgE ratio (stoichiometry of the complex) [1] | binding result [2] |
| --- | --- | --- |
| CsgE (periplasmic accessory factor CsgE, his-tagged, CsgE-his) (other, Added as purified monomeric CsgE; also called specificity factor CsgE; not shown: his tag (CsgE-his from pNH27)) VEVEVPGLLTDHTVSSIGHDFYRAFSDKWESDYTGNLTINERPSARWGSWITITVNQDVIFQTFLFPLKRDFEKTVVFALIQTEEALNRRQINQALLSTGDLAHDEF | 0.97 | – |
| B1 | – | binds |
